T1: LZTR1 R810W-FLAG (human, UniProt Q8N653 1-840)
T1 construct: Stably expressed in U87 cells by lentivirus; also called LZTR1-FLAG-R810W; LZTR1 RW; not shown: FLAG tag
T1 sequence (looked up): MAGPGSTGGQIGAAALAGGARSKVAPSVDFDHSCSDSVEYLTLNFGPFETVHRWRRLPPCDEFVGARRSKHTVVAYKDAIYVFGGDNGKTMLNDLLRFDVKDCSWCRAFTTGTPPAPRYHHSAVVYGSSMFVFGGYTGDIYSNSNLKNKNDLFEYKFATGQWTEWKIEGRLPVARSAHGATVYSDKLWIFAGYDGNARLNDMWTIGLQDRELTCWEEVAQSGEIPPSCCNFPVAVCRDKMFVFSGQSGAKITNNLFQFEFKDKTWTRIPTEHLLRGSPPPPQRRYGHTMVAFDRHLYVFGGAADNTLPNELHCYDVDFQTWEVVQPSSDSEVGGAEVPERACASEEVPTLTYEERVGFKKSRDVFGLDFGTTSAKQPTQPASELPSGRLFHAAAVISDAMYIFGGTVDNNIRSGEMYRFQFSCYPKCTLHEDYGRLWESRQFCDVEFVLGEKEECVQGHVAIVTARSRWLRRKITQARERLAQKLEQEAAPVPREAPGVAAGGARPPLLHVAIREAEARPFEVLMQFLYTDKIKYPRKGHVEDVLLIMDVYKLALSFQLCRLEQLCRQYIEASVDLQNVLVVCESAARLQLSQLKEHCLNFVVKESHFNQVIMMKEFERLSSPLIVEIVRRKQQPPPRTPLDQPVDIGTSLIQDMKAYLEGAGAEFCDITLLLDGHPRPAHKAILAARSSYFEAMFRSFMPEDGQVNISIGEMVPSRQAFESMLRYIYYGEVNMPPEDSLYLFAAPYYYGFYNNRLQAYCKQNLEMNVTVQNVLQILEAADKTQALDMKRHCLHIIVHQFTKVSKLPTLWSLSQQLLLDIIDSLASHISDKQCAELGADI

T2: LZTR1-FLAG (human, UniProt Q8N653 1-840)
T2 construct: Expressed in HEK 293T, HeLa or U87 cells; used as cell lysate; also called LZTR1 wild type-FLAG; LZTR1 WT; not shown: FLAG tag at the C-terminus
T2 sequence (looked up): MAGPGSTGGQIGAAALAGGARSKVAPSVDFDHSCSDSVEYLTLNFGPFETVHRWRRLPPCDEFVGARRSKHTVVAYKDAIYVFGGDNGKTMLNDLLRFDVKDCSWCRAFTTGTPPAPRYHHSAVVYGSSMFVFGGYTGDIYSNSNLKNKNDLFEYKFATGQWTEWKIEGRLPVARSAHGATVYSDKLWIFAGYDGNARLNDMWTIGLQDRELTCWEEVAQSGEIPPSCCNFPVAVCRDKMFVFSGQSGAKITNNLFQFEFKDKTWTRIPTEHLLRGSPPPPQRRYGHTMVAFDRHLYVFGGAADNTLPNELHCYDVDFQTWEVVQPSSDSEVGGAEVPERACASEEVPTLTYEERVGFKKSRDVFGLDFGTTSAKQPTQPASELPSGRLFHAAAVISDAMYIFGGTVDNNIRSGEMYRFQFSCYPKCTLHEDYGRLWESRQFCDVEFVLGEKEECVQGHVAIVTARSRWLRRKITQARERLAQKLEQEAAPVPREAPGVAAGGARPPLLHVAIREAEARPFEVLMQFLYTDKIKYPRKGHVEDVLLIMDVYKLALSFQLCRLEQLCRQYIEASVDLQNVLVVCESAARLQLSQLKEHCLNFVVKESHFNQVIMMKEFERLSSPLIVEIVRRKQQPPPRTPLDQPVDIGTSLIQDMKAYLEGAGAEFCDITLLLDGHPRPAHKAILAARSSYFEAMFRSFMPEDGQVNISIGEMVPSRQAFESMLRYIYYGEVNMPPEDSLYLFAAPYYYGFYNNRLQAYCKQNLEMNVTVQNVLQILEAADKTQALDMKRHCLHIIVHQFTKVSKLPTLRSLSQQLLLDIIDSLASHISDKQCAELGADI


Columns and labels:
LZTR1 R810W-FLAG = target: T1, LZTR1 R810W-FLAG; assay: IP/MS, LZTR1 R810W-FLAG, U87
In short: (§1)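 Extracted peptides in 3% acetonitrile/0.1% formic acid ran on a 50 cm C18 column into an Orbitrap Fusion, with MaxQuant identification and spectral counting.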

LZTR1-FLAG = target: T2, LZTR1-FLAG; assay: IP/MS, LZTR1 wild type-FLAG, U87
In short: as §1

Binder	binding result (LZTR1 R810W-FLAG)	binding result (LZTR1-FLAG)
CTH (other, human, UniProt P32929 1-405, looked up) MQEKDASSQGFLPHFQHFATQAIHVGQDPEQWTSRAVVPPISLSTTFKQGAPGQHSGFEYSRSGNPTRNCLEKAVAALDGAKYCLAFASGLAATVTITHLLKAGDQIICMDDVYGGTNRYFRQVASEFGLKISFVDCSKIKLLEAAITPETKLVWIETPTNPTQKVIDIEGCAHIVHKHGDIILVVDNTFMSPYFQRPLALGADISMYSATKYMNGHSDVVMGLVSVNCESLHNRLRFLQNSLGAVPSPIDCYLCNRGLKTLHVRMEKHFKNGMAVAQFLESNPWVEKVIYPGLPSHPQHELVKRQCTGCTGMVTFYIKGTLQHAEIFLKNLKLFTLAESLGGFESLAELPAIMTHASVLKNDRDVLGISDTLIRLSVGLEDEEDLLEDLDQALKAAHPPSGSHS	binds	binds
FADS1 (other, human, UniProt O60427 1-444, looked up) MAPDPVAAETAAQGPTPRYFTWDEVAQRSGCEERWLVIDRKVYNISEFTRRHPGGSRVISHYAGQDATDPFVAFHINKGLVKKYMNSLLIGELSPEQPSFEPTKNKELTDEFRELRATVERMGLMKANHVFFLLYLLHILLLDGAAWLTLWVFGTSFLPFLLCAVLLSAVQAQAGWLQHDFGHLSVFSTSKWNHLLHHFVIGHLKGAPASWWNHMHFQHHAKPNCFRKDPDINMHPFFFALGKILSVELGKQKKKYMPYNHQHKYFFLIGPPALLPLYFQWYIFYFVIQRKKWVDLAWMITFYVRFFLTYVPLLGLKAFLGLFFIVRFLESNWFVWVTQMNHIPMHIDHDRNMDWVSTQLQATCNVHKSAFNDWFSGHLNFQIEHHLFPTMPRHNYHKVAPLVQSLCAKHGIEYQSKPLLSAFADIIHSLKESGQLWLDAYLHQ	binds	binds
CY P51A1 (other, human, UniProt Q16850 1-509, looked up, Printed as CY P51A1; read as CYP51A1) MAAAAGMLLLGLLQAGGSVLGQAMEKVTGGNLLSMLLIACAFTLSLVYLIRLAAGHLVQLPAGVKSPPYIFSPIPFLGHAIAFGKSPIEFLENAYEKYGPVFSFTMVGKTFTYLLGSDAAALLFNSKNEDLNAEDVYSRLTTPVFGKGVAYDVPNPVFLEQKKMLKSGLNIAHFKQHVSIIEKETKEYFESWGESGEKNVFEALSELIILTASHCLHGKEIRSQLNEKVAQLYADLDGGFSHAAWLLPGWLPLPSFRRRDRAHREIKDIFYKAIQKRRQSQEKIDDILQTLLDATYKDGRPLTDDEVAGMLIGLLLAGQHTSSTTSAWMGFFLARDKTLQKKCYLEQKTVCGENLPPLTYDQLKDLNLLDRCIKETLRLRPPIMIMMRMARTPQTVAGYTIPPGHQVCVSPTVNQRLKDSWVERLDFNPDRYLQDNPASGEKFAYVPFGAGRHRCIGENFAYVQIKTIWSTMLRLYEFDLIDGYFPTVNYTTMIHTPENPVIRYKRRSK	binds	binds

Results, then the binder that gave them:

binding result (LZTR1 R810W-FLAG)	binding result (LZTR1-FLAG)	Binder
binds	binds	ELAC2 (other, human, UniProt Q9BQ52 17-826, looked up) SQGRTISQAPARRERPRKDPLRHLRTREKRGPSGCSGGPNTVYLQVVAAGSRDSGAALYVFSEFNRYLFNCGEGVQRLMQEHKLKVARLDNIFLTRMHWSNVGGLSGMILTLKETGLPKCVLSGPPQLEKYLEAIKIFSGPLKGIELAVRPHSAPEYEDETMTVYQIPIHSEQRRGKHQPWQSPERPLSRLSPERSSDSESNENEPHLPHGVSQRRGVRDSSLVVAFICKLHLKRGNFLVLKAKEMGLPVGTAAIAPIIAAVKDGKSITHEGREILAEELCTPPDPGAAFVVVECPDESFIQPICENATFQRYQGKADAPVALVVHMAPASVLVDSRYQQWMERFGPDTQHLVLNENCASVHNLRSHKIQTQLNLIHPDIFPLLTSFRCKKEGPTLSVPMVQGECLLKYQLRPRREWQRDAIITCNPEEFIVEALQLPNFQQSVQEYRRSAQDGPAPAEKRSQYPEIIFLGTGSAIPMKIRNVSATLVNISPDTSLLLDCGEGTFGQLCRHYGDQVDRVLGTLAAVFVSHLHADHHTGLPSILLQRERALASLGKPLHPLLVVAPNQLKAWLQQYHNQCQEVLHHISMIPAKCLQEGAEISSPAVERLISSLLRTCDLEEFQTCLVRHCKHAFGCALVHTSGWKVVYSGDTMPCEALVRMGKDATLLIHEATLEDGLEEEAVEKTHSTTSQAISVGMRMNAEFIMLNHFSQRYAKVPLFSPNFSEKVGVAFDHMKVCFGDFPTMPKLIPPLKALFAGDIEEMEERREKRELRQVRAALLSRELAGGLEDGEPQQKRAHTEEPQAKKVRAQ
binds	binds	GBE1 (other, human, UniProt Q04446 2-702, looked up) AAPMTPAARPEDYEAALNAALADVPELARLLEIDPYLKPYAVDFQRRYKQFSQILKNIGENEGGIDKFSRGYESFGVHRCADGGLYCKEWAPGAEGVFLTGDFNGWNPFSYPYKKLDYGKWELYIPPKQNKSVLVPHGSKLKVVITSKSGEILYRISPWAKYVVREGDNVNYDWIHWDPEHSYEFKHSRPKKPRSLRIYESHVGISSHEGKVASYKHFTCNVLPRIKGLGYNCIQLMAIMEHAYYASFGYQITSFFAASSRYGTPEELQELVDTAHSMGIIVLLDVVHSHASKNSADGLNMFDGTDSCYFHSGPRGTHDLWDSRLFAYSSWEILRFLLSNIRWWLEEYRFDGFRFDGVTSMLYHHHGVGQGFSGDYSEYFGLQVDEDALTYLMLANHLVHTLCPDSITIAEDVSGMPALCSPISQGGGGFDYRLAMAIPDKWIQLLKEFKDEDWNMGDIVYTLTNRRYLEKCIAYAESHDQALVGDKSLAFWLMDAEMYTNMSVLTPFTPVIDRGIQLHKMIRLITHGLGGEGYLNFMGNEFGHPEWLDFPRKGNNESYHYARRQFHLTDDDLLRYKFLNNFDRDMNRLEERYGWLAAPQAYVSEKHEGNKIIAFERAGLLFIFNFHPSKSYTDYRVGTALPGKFKIVLDSDAAEYGGHQRLDHSTDFFSEAFEHNGRPYSLLVYIPSRVALILQNVDLPN
binds	binds	DHX32 (other, human, UniProt Q7L7V1 1-743, looked up) MEEEGLECPNSSSEKRYFPESLDSSDGDEEEVLACEDLELNPFDGLPYSSRYYKLLKEREDLPIWKEKYSFMENLLQNQIVIVSGDAKCGKSAQVPQWCAEYCLSIHYQHGGVICTQVHKQTVVQLALRVADEMDVNIGHEVGYVIPFENCCTNETILRYCTDDMLQREMMSNPFLGSYGVIILDDIHERSIATDVLLGLLKDVLLARPELKLIINSSPHLISKLNSYYGNVPVIEVKNKHPVEVVYLSEAQKDSFESILRLIFEIHHSGEKGDIVVFLACEQDIEKVCETVYQGSNLNPDLGELVVVPLYPKEKCSLFKPLDETEKRCQVYQRRVVLTTSSGEFLIWSNSVRFVIDVGVERRKVYNPRIRANSLVMQPISQSQAEIRKQILGSSSSGKFFCLYTEEFASKDMTPLKPAEMQEANLTSMVLFMKRIDIAGLGHCDFMNRPAPESLMQALEDLDYLAALDNDGNLSEFGIIMSEFPLDPQLSKSILASCEFDCVDEVLTIAAMVTAPNCFSHVPHGAEEAALTCWKTFLHPEGDHFTLISIYKAYQDTTLNSSSEYCVEKWCRDYFLNCSALRMADVIRAELLEIIKRIELPYAEPAFGSKENTLNIKKALLSGYFMQIARDVDGSGNYLMLTHKQVAQLHPLSGYSITKKMPEWVLFHKFSISENNYIRITSEISPELFMQLVPQYYFSNLPPSESKDILQQVVDHLSPVSTMNKEQQMCETCPETEQRCTLQ
